Reference: patent US20200384109A1 (published 2020)

Assays:
Assay in all cases: SET
[1] = target: BKV serotype I (ST1) virus-like particles (VLPs) (UniProt P03088 1-362)
[2] = target: BKV serotype III (ST3) virus-like particles (VLPs) (UniProt P14996 1-362)
[3] = target: BKV serotype IV (ST4) virus-like particles (VLPs) (UniProt P14996 1-362)
[4] = target: BKV serotype II (ST2) virus-like particles (VLPs) (UniProt P14996 1-362)

Binder | Kd [1] | Kd [2] | Kd [3] | Kd [4]
NOV530 (antibody, V domains shown) VH: QVQLQESGPGLVKPSQTLSLTCTVSGGSISGGGYYWSWIRQHPGKGLEFIGYIYYNRGTYYNPALKSRLTISVDTSKNDFSLKLSSVSAADTAVYYCARCVLGGYGSDAFDRWGQGTTVTVAS VL: EIVLTQSPVTLSLSPGERAILSCRASQSVSSHLAWYQQKPGQAPRLLIYDASSRANGIPARFSGSGSGTDFTLTISSLAPEDFAVYYCQQRSSWPPSLTFGGGTKVEIRR | 0.015 nM |  |  | 
NOV581 (antibody, V domains shown) VH: QVQLVESGGGLVQPGGSLRLSCVASGFTFSGYNMHWVRQAPGKGLEWVSYISNSGRTIYYADSVKGRFTLSRDNAKNSLYLQMNSLRAEDTAVYFCARDRDPQWLGNDALQIWGQGTMVTVSS VL: EIVLTQSPGTLSLSPGERATLSCRASQSVSSGYLAWYQQKPGQAPRLLIYGASSRATGIPDRFSGSGSGTDFTLTISRLEPEDFAVYYCQQYGTSRKTFGQGTKVEIKR | 0.044 nM | 0.092 nM | > 6.6 nM | 0.069 nM
NOV796 (antibody, V domains shown) VH: QVQLVQSGPGLVKPSETLSLTCSVSGGSISGYYWSWIRQPPGKGLEWIGLIYESGSANYNPSLKSRVTISLDTSKNQFSLKLKSVTAADTAVYYCARRVRGWSYGMDVWGQGTTVAVSS VL: DIVLTQSPGTLSLSPGETATLSCRASQILSSSFLAWFQQIPGQAPRLLIYAASSRATGIPDRFSGSGSGTDFSLTISRLEPEDFAVYYCQHYGSSPPWTFGQGTKVEIKR | 0.003 nM | 0.007 nM | 0.0009 nM | 0.006 nM
